Measured values from US20160145309A1.

Molecular target: human APJ receptor (human) (UniProt P35414)
Test: cell-based or functional assay

Chain of human APJ receptor (human) (P35414 whole entry): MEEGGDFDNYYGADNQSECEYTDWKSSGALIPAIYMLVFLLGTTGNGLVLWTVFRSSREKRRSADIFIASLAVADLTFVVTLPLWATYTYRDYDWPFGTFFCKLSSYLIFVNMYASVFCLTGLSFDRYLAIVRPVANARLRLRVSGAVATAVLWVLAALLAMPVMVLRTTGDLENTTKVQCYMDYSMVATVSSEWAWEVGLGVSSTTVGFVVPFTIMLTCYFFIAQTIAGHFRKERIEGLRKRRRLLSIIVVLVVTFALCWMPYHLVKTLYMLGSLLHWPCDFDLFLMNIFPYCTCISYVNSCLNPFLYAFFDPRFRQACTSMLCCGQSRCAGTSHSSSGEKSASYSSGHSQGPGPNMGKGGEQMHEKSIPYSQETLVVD

Row | Substance | hAPJ Ca2+ Flux EC50
1 | Example 18: Isonipecotoyl-R-P-R-L-a-H-K-C*-P-Nle-C*-f-OH (peptide) | 0.0023 µM
2 | Example 10: pE-R-P-R-L-S-(D-hC)*-K-G-P-Nle-C*-OH (peptide) | 0.976 µM
3 | Example 20: pE-R-P-R-L-S-Aib-K-C*-P-Nle-C*-f-OH (peptide) | 0.0061 µM
4 | Example 13: pE-R-P-R-L-S-hC*-K-G-P-Nle-hC*-F-OH (peptide) | 0.76 µM
5 | Example 16: pE-R-P-R-L-S-a-K-C*-P-Nle-C*-f-OH (peptide) | 0.0332 µM
6 | Example 4: pE-R-P-R-L-S-C*-K-G-P-Nle-(D-hC)*-F-OH (peptide) | 0.407 µM
7 | Example 2: pE-R-P-R-hC*-S-H-K-G-P-(D-Nle)-C*-y-OH (peptide) | 0.154 µM
8 | Example 6: pE-R-P-R-L-S-hC*-K-G-P-Nle-(D-hC)*-F-OH (peptide) | 0.0928 µM

Now from value to substance:

Row | hAPJ Ca2+ Flux EC50 | Substance
9 | 0.113 µM | Example 11: pE-R-P-R-L-S-C*-K-G-P-Nle-c*-F-OH (peptide)
10 | 0.613 µM | Example 8: pE-R-P-R-L-S-(D-hC)*-K-G-P-Nle-C*-F-OH (peptide)
11 | 0.00074 µM | Example 1: pE-R-P-R-C*-S-H-K-G-P-Nle-C*-F-OH (peptide)
12 | 0.00081 µM | Example 14: pE-R-P-R-L-S-H-K-C*-P-Nle-C*-F-OH (peptide)
13 | 0.129 µM | Example 3: pE-R-P-R-L-S-C*-K-G-P-Nle-C*-F-OH (peptide)
14 | 0.981 µM | Example 5: pE-R-P-R-L-S-c*-K-G-P-Nle-(D-hC)*-F-OH (peptide)
15 | 0.781 µM | Example 7: pE-R-P-R-L-S-(D-hC)*-K-G-P-Nle-(D-hC)*-F-OH (peptide)
16 | 0.0019 µM | Example 17: pE-R-P-R-L-a-H-K-C*-P-Nle-C*-f-OH (peptide)
17 | 0.004 µM | Example 15: pE-R-P-R-L-S-Aib-K-C*-P-Nle-C*-NH(Phenethyl) (peptide)
18 | 1.03 µM | Example 9: pE-R-P-R-L-S-(D-hC)*-K-G-P-Nle-hC*-F-OH (peptide)
19 | 0.0097 µM | Example 21: pE-R-P-R-L-s-H-K-C*-P-Nle-C*-f-OH (peptide)
20 | 0.0817 µM | Example 12: pE-R-P-R-L-S-C*-K-G-P-Nle-hC*-F-OH (peptide)
21 | 0.0723 µM | Example 19: pE-R-P-R-L-a-Aib-K-C*-P-Nle-C*-f-OH (peptide)
